According to patent publication US8217140B2, “Peptides capable of binding to serum proteins and compounds, constructs and polypeptides comprising the same” (Ablynx N.V., priority 2008, dated 2012):

Legend:
[1] = test system: platelet adhesion to fibrillar collagen; test: Perfusion experiments: platelet adhesion to collagen at arterial shear rate; type: cell-based, human
Procedure: The perfusion experiments were performed with a single-pass perfusion chamber under non-pulsatile flow conditions using a modified small perfusion chamber with a slit height of 0.1 mm and a slit width of 2 mm. […] Citrated human blood was preincubated at 37° C. for 5 min with or without addition of test compound, and then perfused through the chamber for 5 min at a wall shear rate of 1600 s^−1 using an infusion/withdrawal pump (pump 22, model 2400-004, Harvard Apparatus, Holliston, Mass.). After the perfusion run, the coverslips were rinsed in Hepes buffered saline (10 mM Hepes, 150 mM NaCl, pH 7.4) and platelets were fixed with 5% glutaraldehyde and stained with May-Grünwald and Giemsa. Platelet deposition of the coverslip was evaluated as platelet surface coverage of 10 randomly chosen pictures using light microscopy (Olympus BX61 microscope using Analysis Five digital imaging solutions analysis software).

[2] = Chemical stability on storage at 37° C., RP-HPLC; type: physicochemical; details: 4 weeks incubation at 37° C. in D-PBS
Procedure: To evaluate the chemical stability of vWF0055, the Nanobody® vWF0055 was stored at 37° C. After 1, 2 and 4 weeks a sample was taken and analyzed for chemical or proteolytic modifications via RP-HPLC (Zorbax 300SB-C3, 4.6×150 mm (5 μm); trifluoroacetic acid/acetonitrile).

[3] = cynomolgus monkey, in vivo
Procedure: The pharmacokinetic profile of the constructs was analyzed in male cynomolgus monkeys of approximately 3 to 4 years old and was compared to the reference (SEQ ID NO:165). The constructs and the control were each injected in three monkeys at a dose of 2 mg/kg via an intravenous bolus injection. Blood samples were taken at predose, 5 min, 20 min, 1 h, 2 h, 4 h, 8 h (test day 1) after administration and at test days 2, 3, 5, 7, 9, 12, 15, 18, 21, 24, 27, 30, 33. In order to obtain at least 1 mL plasma per animal per sampling time, a sufficient volume of whole blood was withdrawn per sampling time. Plasma was collected after whole blood centrifugation for 30 minutes at 2200 g at room temperature (RT). The plasma samples were stored at −80° C. until analysis.
For bioanalytical determination of constructs and control article in monkey plasma, plasma samples were tested for levels of constructs and the control using ELISA based PK assays. The detection of control and constructs in the ELISA assays is based on the binding of these Nanobodies with vWF and the assay set-ups are as such that total vWF-binding Nanobody is detected.
For the reference (SEQ ID NO:165) and the construct of SEQ ID NO:167, 96-well microtiter plates (Maxisorp, Nunc, Wiesbaden, Germany) were coated overnight at 4° C. with neutravidin (Pierce) in 10:10 buffer at 3 μg/ml. Wells were aspirated and blocked for 1 hour at RT with PBS/1% casein. After this blocking step, wells were washed with PBS/0.05% Tween20. A biotinylated bivalent Nanobody against the constructs was added to the neutravidin coated plate at 2 μg/ml in PBS/0.1% casein and incubated for 1 hour at RT. After the incubation step of this capture tool, wells were washed 3 times with PBS/0.05% Tween20.
Preparations of the standards, QC samples and dilutions of the test samples were performed in a non-coated (polypropylene) plate. For the standard curve and QC-samples, solutions at the required concentrations were prepared in PBS/0.1% casein and spiked into 100% monkey plasma. To prepare standards and QC samples, a 1/100 dilution of the pure monkey plasma dilutions was made in IgM-Reducing Agent (Immunochemistry Technologies, Bloomington, USA) supplemented with 2.5% pooled human plasma (referred to as sample diluent). For the test samples, dilution factors for the test samples were estimated, and ranged between 1/100 to 1/9000 for the reference of SEQ ID NO:165 tests and between 1/100 and 12000 for the construct of SEQ ID NO: 167. Samples were diluted 1/100 in sample diluent in a first step, and if needed, further dilution was done in sample diluent supplemented with 1% cynomolgus plasma.
Standards, QC samples and diluted test samples were transferred onto the coated plate and incubated for 1 hour at RT. Afterwards the plates were washed followed by a complexation step with purified vWF (ZLB Behring). vWF diluted to 2.5 μg/ml for the assay for the reference of SEQ ID NO:165 and to 3 μg/ml for the assay for the construct of SEQ ID NO: 167 in PBS/0.1% casein was incubated on the plates for 30 minutes at RT. Plates were washed and Nanobody/vWF complexes bound to the capture tool detected with Rabbit anti-human vWF Ab (Dako, Denmark), diluted 1/2000 in PBS/0.1% casein and incubated for 30 minutes at RT. After washing, a 1/15000 dilution in PBS/0.1% casein of Horse-Radish-Peroxidase labelled goat anti-rabbit Ab (Dako, Denmark) was added to the plate and incubated for 30 minutes at RT. The enzyme coupled to the Ab catalyzes a chemical reaction with the substrate sTMB (3,3′,5,5′-tetramethylbenzidine, SDT reagents, Brussels, Belgium), resulting in a colorimetric change. After stopping this reaction after 10 minutes using HC1 (1N), the intensity of the colour was measured using a spectrophotometer at 450 nm. […]

cynoSA = cynoSA (Macaca fascicularis, UniProt A2V9Z4); test: Biacore analysis of pH dependency of binding; set-up: species or system cynomolgus monkey
cynoSA, sequence (A2V9Z4 25-608): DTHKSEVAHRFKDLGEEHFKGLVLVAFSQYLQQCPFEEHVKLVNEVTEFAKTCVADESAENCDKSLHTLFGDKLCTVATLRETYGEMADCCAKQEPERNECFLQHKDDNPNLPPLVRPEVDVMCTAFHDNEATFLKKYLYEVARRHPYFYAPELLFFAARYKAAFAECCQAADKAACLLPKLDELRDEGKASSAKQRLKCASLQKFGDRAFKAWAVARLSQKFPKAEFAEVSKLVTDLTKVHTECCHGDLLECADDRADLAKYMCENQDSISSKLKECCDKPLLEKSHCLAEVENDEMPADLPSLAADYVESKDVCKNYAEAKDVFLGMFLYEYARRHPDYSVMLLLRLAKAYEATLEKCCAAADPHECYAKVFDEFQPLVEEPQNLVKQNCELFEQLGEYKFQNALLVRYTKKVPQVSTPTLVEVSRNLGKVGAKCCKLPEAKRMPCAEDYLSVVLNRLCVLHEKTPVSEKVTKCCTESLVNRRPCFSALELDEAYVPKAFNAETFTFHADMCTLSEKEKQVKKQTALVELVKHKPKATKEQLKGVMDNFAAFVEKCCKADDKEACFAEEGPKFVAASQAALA
Procedure: (§1) The pH dependent binding of vWF0055 on HSA and cynoSA was investigated by surface plasmon resonance using a Biacore 3000 instrument by assessing the affinity at three different pH's. In brief, HSA and cynoSA were amine-coupled to a separate CM5 sensor chip at a density of respectively 1800RU and 1900RU. Diluted samples, ranging in concentration between 25 nM to 1 μM vW0055 were prepared in three buffers. The three buffers used contained 50 mM phosphate, 150 mM NaCl and 0.005% surfactant P and were adjusted to either pH5, pH7 or pH8. Samples were injected at a flow-rate of 45 μL/min, association and dissociation were monitored during 120 sec and 300 sec. Binding curves were subsequently used to calculate the KD, association- and dissociation-rate constants with the BiaEvaluation software.

VWF = test: Pharmacodynamic profile: ristocetin cofactor activity assay (% RICO) after i.v. administration; type: in vivo, Cynomolgus monkey
Procedure: For the constructs used in Example 14, pharmacodynamic characteristics upon compound administration were measured by means of a ristocetin cofactor activity assay (Biopool). The ristocetin cofactor activity is a functional assay for VWF, measuring the capacity of VWF to interact with the platelet receptor glycoprotein Ib using ristocetin as a modulator.
For pharmacodynamic data analysis, descriptive statistics (mean and SD) were calculated per dose group and per sampling time point using Microsoft Excel 2007. Response parameters and associated statistics for the overall time course were calculated by noncompartmental analysis of the response-time data using WinNonlin Pro 5.1 (Pharsight Corporation, USA; 2006). The non-compartmental analysis was based on a model for pharmacodynamic data (Model 220). The threshold value was set at 20% based on extensive historical PK/PD data on the vWF-0001 compound. Preclinical studies have shown that a complete inhibition of the pharmacodynamic marker are correlated with full antithrombotic efficacy. The following main pharmacodynamic parameters were determined: time below the threshold (Time below T), area under the threshold (AUC below T), time at which the % RICO first drops below the threshold (Tonset), and time at which the % RICO first returns back above the threshold (Toffset).

HSA = HSA (Homo sapiens, UniProt P02768); test: Biacore analysis of pH dependency of binding
Procedure: as §1

[4] = threshold 20% RICO, i.v. bolus 2 mg/kg, male Cynomolgus monkey, mean n = 3

decrease of affinity at pH5 (cynoSA; pH5): about 10 fold
pH at which the highest affinity was observed (cynoSA; pH5, pH7 or pH8 tested): 7
decrease of affinity at pH5 (HSA; pH5): about 10 fold
pH at which the highest affinity was observed (HSA; pH5, pH7 or pH8 tested): 7
B1: 12A2_sv1-AAA-12A2_sv1-9GS-59C2 (protein)
chain: DVQLVESGGGLVQPGGSLRLSCAASGRTFSYNPMGWFRQAPGKGRELVAAISRTGGSTYYPESVEGRFTISRDNAKRTVYLQMNSLRAEDTAVYYCAAAGVRAEQGRVRTLPSEYTFWGQGTQVTVSSAAAEVQLVESGGGLVQPGGSLRLSCAASGRTFSYNPMGWFRQAPGKGRELVAAISRTGGSTYYPESVEGRFTISRDNAKRTVYLQMNSLRAEDTAVYYCAAAGVRAEQGRVRTLPSEYTFWGQGTQVTVSSGGGGSGGGSRDWDFDVFGGGTPVGG
Effective concentration compared to VWF0001 ([1]; FIG. 12): similar
inhibition of platelet adhesion to fibrillar collagen at arterial shear rate ([1]; citrated human blood, wall shear rate 1600 s^−1, FIG. 12): dose-dependently and completely inhibit
chemical modifications or proteolytic degradation [2]: neither chemical modifications nor proteolytic degradation occurred
Vdss lower relative to vWF0001 [3]: 11 fold
dominant half-life (t½ dominant) increase relative to vWF0001 [3]: 85 fold
mean CL decrease compared to the control [3]: 26 fold
AUCinf ([3]; iv, 2 mg/kg): 1590 µg·h/mL
C0 ([3]; iv, 2 mg/kg): 46500 ng/mL
Tonset values (VWF; estimated, i.v. application): ~5 min
mean AUC under the threshold increase relative to vWF0001 (VWF; i.v. bolus): 118 fold
time below the threshold increase relative to vWF0001 (VWF; i.v. bolus): 105 fold
AUC below T (VWF; [4]): 781 % RICO * h
Time below T (VWF; [4]): 127 h
Tonset (VWF; time % RICO first drops below threshold, i.v. bolus 2 mg/kg): 0.074 h
Toffset (VWF; time % RICO first returns above threshold, i.v. bolus 2 mg/kg): 127 h
